The values below come from the supplement of paper PMC10567573.

B1: NEK8 (parent)
chain: YTFGSNQHGQLGTNTRRGSRAPCK
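Also: lentivirally expressed fusions sorted by FACS into six bins by GFP to DsRed ratio, PSI derived from sequencing read proportions per bin multiplied by bin number.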

In the data set the parent is B1. Nature of the data set: protein stability index of a GFP-peptide fusion (GPS, HEK-293T) (PSI 1-6); higher = more stable. Conditions: c terminus: a fixed tail appended.
On to YTFGSNQHGQLGTNTRRYSRAPCK [G18Y], for which the protein stability index was 3.26.

For the variant YTFGSNQHGQLGTNTRRKSRAPCK [G18K], the protein stability index was determined as 4.05.

Turning to YTFGSNQHGQLGTNTRRVSRAPCK [G18V], the protein stability index was 3.46.

Turning to YTFGSNQHGQLGTNTRRASRAPCK [G18A], the protein stability index is 3.33.

With YTFGSNQHGQLGTNTRRPSRAPCK [G18P], the protein stability index is 3.53.

YTFGSNQHGQLGTNTRRFSRAPCK [G18F]: the protein stability index came to 2.85.

As for YTFGSNQHGQLGTNTRRISRAPCK [G18I], the protein stability index was found to be 3.61.

For the variant YTFGSNQHGQLGTNTRRMSRAPCK [G18M], the protein stability index amounted to 3.47.

Turning to YTFGSNQHGQLGTNTRRRSRAPCK [G18R], the protein stability index was 3.95.

YTFGSNQHGQLGTNTRRWSRAPCK [G18W]: the protein stability index stood at 3.23.

Consider YTFGSNQHGQLGTNTRRQSRAPCK [G18Q], for which the protein stability index amounted to 3.27.

YTFGSNQHGQLGTNTRRCSRAPCK [G18C]: the protein stability index was 3.48.

With YTFGSNQHGQLGTNTRRNSRAPCK [G18N], the protein stability index was 3.81.

Turning to YTFGSNQHGQLGTNTRRHSRAPCK [G18H], the protein stability index is 3.52.

YTFGSNQHGQLGTNTRRTSRAPCK [G18T]: the protein stability index was determined as 4.08.

For YTFGSNQHGQLGTNTRRDSRAPCK [G18D], the protein stability index came to 3.94.

Turning to YTFGSNQHGQLGTNTRRLSRAPCK [G18L], the protein stability index amounted to 3.77.

For the variant YTFGSNQHGQLGTNTRRESRAPCK [G18E], the protein stability index came out at 3.69.

Regarding YTFGSNQHGQLGTNTRRSSRAPCK [G18S], the protein stability index came to 3.43.

Turning to YTFGSNQHGQLGTNTRHGSRAPCK [R17H], the protein stability index stood at 3.94.

Consider YTFGSNQHGQLGTNTRTGSRAPCK [R17T], for which the protein stability index worked out at 3.65.

Consider YTFGSNQHGQLGTNTRMGSRAPCK [R17M], for which the protein stability index worked out at 3.88.

With YTFGSNQHGQLGTNTRNGSRAPCK [R17N], the protein stability index was found to be 3.97.

YTFGSNQHGQLGTNTRPGSRAPCK [R17P]: the protein stability index stood at 3.75.

Take YTFGSNQHGQLGTNTRSGSRAPCK [R17S]: the protein stability index was 3.81.

Turning to YTFGSNQHGQLGTNTRIGSRAPCK [R17I], the protein stability index was 3.51.

Turning to YTFGSNQHGQLGTNTRQGSRAPCK [R17Q], the protein stability index is 4.02.

Consider YTFGSNQHGQLGTNTRLGSRAPCK [R17L], for which the protein stability index worked out at 3.92.

As for YTFGSNQHGQLGTNTRVGSRAPCK [R17V], the protein stability index came to 3.66.

For the variant YTFGSNQHGQLGTNTRYGSRAPCK [R17Y], the protein stability index was 3.5.

YTFGSNQHGQLGTNTRKGSRAPCK [R17K]: the protein stability index came to 3.73.

On to YTFGSNQHGQLGTNTRRGARAPCK [S19A], for which the protein stability index is 3.95.

Take YTFGSNQHGQLGTNTRRGERAPCK [S19E]: the protein stability index turned out to be 3.72.

Take YTFGSNQHGQLGTNTRRGRRAPCK [S19R]: the protein stability index turned out to be 3.91.

Regarding YTFGSNQHGQLGTNTRRGQRAPCK [S19Q], the protein stability index was 4.02.

As for YTFGSNQHGQLGTNTRRGMRAPCK [S19M], the protein stability index turned out to be 4.05.

As to YTFGSNQHGQLGTNTRRGDRAPCK [S19D], the protein stability index turned out to be 4.18.

On to YTFGSNQHGQLGTNTRRGWRAPCK [S19W], for which the protein stability index stood at 2.8.

As to YTFGSNQHGQLGTNTRRGTRAPCK [S19T], the protein stability index worked out at 3.81.

On to YTFGSNQHGQLGTNTRRGYRAPCK [S19Y], for which the protein stability index was 3.52.

On to YTFGSNQHGQLGTNTRRGHRAPCK [S19H], for which the protein stability index turned out to be 3.95.

Consider YTFGSNQHGQLGTNTRRGLRAPCK [S19L], for which the protein stability index stood at 3.82.

For the variant YTFGSNQHGQLGTNTRRGIRAPCK [S19I], the protein stability index was 3.33.

In the case of YTFGSNQHGQLGTNTRRGGRAPCK [S19G], the protein stability index came out at 3.91.

As to YTFGSNQHGQLGTNTRRGCRAPCK [S19C], the protein stability index worked out at 3.08.

As to YTFGSNQHGQLGTNTRRGVRAPCK [S19V], the protein stability index worked out at 3.77.

Take YTFGSNQHGQLGTNTRRGNRAPCK [S19N]: the protein stability index is 3.86.

Turning to YTFGSNQHGQLGTNTRRGKRAPCK [S19K], the protein stability index was 3.77.

On to YTFGSNQHGQLGTNTRRGFRAPCK [S19F], for which the protein stability index is 3.03.

As to YTFGSNQHGQLGTNTRRGPRAPCK [S19P], the protein stability index came to 3.89.

For the variant YTFGSNQHGQLGTNTRRGSRAPSK [C23S], the protein stability index was 3.72.

Take YTFGSNQHGQLGTNTRRGSRAPMK [C23M]: the protein stability index was determined as 3.61.

For the variant YTFGSNQHGQLGTNTRRGSRAPAK [C23A], the protein stability index came to 3.95.

In the case of YTFGSNQHGQLGTNTRRGSRAPEK [C23E], the protein stability index was 4.27.

On to YTFGSNQHGQLGTNTRRGSRAPDK [C23D], for which the protein stability index came to 4.19.

For YTFGSNQHGQLGTNTRRGSRAPIK [C23I], the protein stability index turned out to be 3.59.

As for YTFGSNQHGQLGTNTRRGSRAPWK [C23W], the protein stability index is 3.37.

As for YTFGSNQHGQLGTNTRRGSRAPVK [C23V], the protein stability index stood at 4.25.

For YTFGSNQHGQLGTNTRRGSRAPFK [C23F], the protein stability index came to 3.61.

Regarding YTFGSNQHGQLGTNTRRGSRAPGK [C23G], the protein stability index is 3.4.

With YTFGSNQHGQLGTNTRRGSRAPNK [C23N], the protein stability index was 4.19.

Turning to YTFGSNQHGQLGTNTRRGSRAPTK [C23T], the protein stability index came to 3.9.

As to YTFGSNQHGQLGTNTRRGSRAPRK [C23R], the protein stability index worked out at 4.

Consider YTFGSNQHGQLGTNTRRGSRAPKK [C23K], for which the protein stability index came to 4.21.

As for YTFGSNQHGQLGTNTRRGSRAPHK [C23H], the protein stability index was 4.25.

In the case of YTFGSNQHGQLGTNTRRGSRAPQK [C23Q], the protein stability index was 4.18.

On to YTFGSNQHGQLGTNTRRGSRAPPK [C23P], for which the protein stability index was determined as 3.89.

As for YTFGSNQHGQLGTNTRRGSRAPYK [C23Y], the protein stability index was 3.46.

Regarding YTFGSNQHGQLGTNTRRGSRAPLK [C23L], the protein stability index was 3.91.

For the variant YTFGSNQHGQLGTNTRRGSSAPCK [R20S], the protein stability index worked out at 3.55.

Regarding YTFGSNQHGQLGTNTRRGSQAPCK [R20Q], the protein stability index came to 4.17.

For the variant YTFGSNQHGQLGTNTRRGSLAPCK [R20L], the protein stability index was 3.53.

For YTFGSNQHGQLGTNTRRGSPAPCK [R20P], the protein stability index stood at 3.83.

For the variant YTFGSNQHGQLGTNTRRGSCAPCK [R20C], the protein stability index was 3.33.

Turning to YTFGSNQHGQLGTNTRRGSWAPCK [R20W], the protein stability index was 2.21.

Take YTFGSNQHGQLGTNTRRGSAAPCK [R20A]: the protein stability index amounted to 4.07.

YTFGSNQHGQLGTNTRRGSGAPCK [R20G]: the protein stability index came to 3.97.

Consider YTFGSNQHGQLGTNTRRGSKAPCK [R20K], for which the protein stability index was found to be 4.38.

In the case of YTFGSNQHGQLGTNTRRGSNAPCK [R20N], the protein stability index is 4.05.

Turning to YTFGSNQHGQLGTNTRRGSEAPCK [R20E], the protein stability index amounted to 4.1.

On to YTFGSNQHGQLGTNTRRGSMAPCK [R20M], for which the protein stability index is 3.15.

YTFGSNQHGQLGTNTRRGSIAPCK [R20I]: the protein stability index amounted to 3.52.

For the variant YTFGSNQHGQLGTNTRRGSFAPCK [R20F], the protein stability index worked out at 2.85.

With YTFGSNQHGQLGTNTRRGSYAPCK [R20Y], the protein stability index came out at 3.07.

With YTFGSNQHGQLGTNTRRGSHAPCK [R20H], the protein stability index came to 3.96.

Consider YTFGSNQHGQLGTNTRRGSVAPCK [R20V], for which the protein stability index was determined as 3.48.

In the case of YTFGSNQHGQLGTNTRRGSDAPCK [R20D], the protein stability index worked out at 3.81.

With YTFGSNQHGQLGTNTRRGSTAPCK [R20T], the protein stability index came to 3.86.

As to YTFGSNQHGQLGTNTRRGSRVPCK [A21V], the protein stability index amounted to 3.84.

YTFGSNQHGQLGTNTRRGSREPCK [A21E]: the protein stability index worked out at 4.32.

Consider YTFGSNQHGQLGTNTRRGSRPPCK [A21P], for which the protein stability index amounted to 3.69.

As for YTFGSNQHGQLGTNTRRGSRHPCK [A21H], the protein stability index turned out to be 3.79.

As for YTFGSNQHGQLGTNTRRGSRKPCK [A21K], the protein stability index was found to be 4.24.

Turning to YTFGSNQHGQLGTNTRRGSRGPCK [A21G], the protein stability index was 3.7.
